According to patent publication US20060115482A1, “Modifications of histone proteins as indicators of cell proliferation and differentiation” (The Regents of the University of California, priority 2004, published 2006):

Key:
[1] = target: recombinant histone H2B (unphosphorylated) (Drosophila) (UniProt P02283); conditions: scale: % of the activity determined for TFIID, TAF1 and CTK
[2] = target: native nucleosomes purified from 0-6 h Drosophila embryos (H2B in nucleosomes) (Drosophila) (UniProt P02283)
[3] = target: recombinant histone H2B (unphosphorylated) (Drosophila) (UniProt P02283)

Row | kinase activity (radiolabeled H2B cut from the gel, scintillation counting) [1] | turnover value for phosphorylation of H2B-S33 (in vitro kinase assay, scintillation counting) [2] [s⁻¹] | turnover value for phosphorylation of H2B-S33 (in vitro kinase assay, scintillation counting) [3] [s⁻¹] | Substance
1 | < 0.1 |  |  | CTK(D1538A) (from UniProt P51123) (enzyme)
2 | < 0.1 |  |  | CTKΔ1600 (CTK polypeptide lacking the S/T-kinase motif) (from UniProt P51123) (enzyme)
3 | < 0.1 |  |  | CTKΔATP (CTK polypeptide lacking the ATP binding motifs) (from UniProt P51123) (enzyme)
4 |  | 2.6 | 4.4 | TAF1 COOH-terminal kinase domain (CTK; amino acids 1496-2132) (from UniProt P51123) (enzyme)
5 |  | 3.3 | 2.6 | TFIID (endogenous Drosophila melanogaster TFIID, immunopurified) (from UniProt P51123) (enzyme)
6 |  | 2.5 | 2.5 | recombinant TAF1 (Flag(M2)-epitope tagged, immunopurified) (from UniProt P51123) (enzyme)
